The values below come from patent US20070053889A1 (AMSTERDAM MOLECULAR THERAPEUTICS AMT IP B V, published 2007).

The target of the experiment is T1, integrin α4β7 expressed on transduced human CD4+ T cells (human, UniProt P13612 34-1032; P26010 20-798).
T1 construct: whole, on cells; Endogenous integrin on sorted human CD4+ cells transduced with the GFP or IL-10-GFP retroviral vector; The cells were CFDSE-labelled in the adhesion assay; also called αA4β7; gut-homing molecule α4β7
The experiment in a line: cell adhesion assay with blocking mAbs. As to the method: Adhesion of sorted CD4⁺ cells, transduced with GFP (1 donor) or IL-10-GFP (2 donors), to MAdCAM-1 transfected 293T cells was determined after preincubation with or without the following mAbs: 145 2C11 (control), act-1 (αA4β7) or MECA-367 (αMAdCAM-1). Fluorescent-labelled CD4⁺ cells were added to a 96 well plate that contained confluent MAdCAM-1 transfected 293T cells or control 293T cells. Relative binding inhibition was referred to the maximum binding achieved in the absence of mAbs (as described in Materials and Methods).
We investigated whether transduced CD4⁺ cells were able to bind to the mucosal addressin MAdCAM-1 measuring their adhesion to 293T cells stably expressing the murine MAdCAM cDNA (kindly provided by Dr. S. Fong, Genentech Inc., San Fransisco, Calif., USA). […] Fluorescence was measured in a Cytofluor plate reader (Perceptive Biosystems, Frarningham, Mass., USA) before and after washing. The adherence was calculated as the percentage of fluorescent cells remaining after washing. The maximum binding was calculated as the difference in adherence to MAdCAM-1 transfected and control 293T cells.

T1 sequence (P13612 34-1032, chain 1 of 2): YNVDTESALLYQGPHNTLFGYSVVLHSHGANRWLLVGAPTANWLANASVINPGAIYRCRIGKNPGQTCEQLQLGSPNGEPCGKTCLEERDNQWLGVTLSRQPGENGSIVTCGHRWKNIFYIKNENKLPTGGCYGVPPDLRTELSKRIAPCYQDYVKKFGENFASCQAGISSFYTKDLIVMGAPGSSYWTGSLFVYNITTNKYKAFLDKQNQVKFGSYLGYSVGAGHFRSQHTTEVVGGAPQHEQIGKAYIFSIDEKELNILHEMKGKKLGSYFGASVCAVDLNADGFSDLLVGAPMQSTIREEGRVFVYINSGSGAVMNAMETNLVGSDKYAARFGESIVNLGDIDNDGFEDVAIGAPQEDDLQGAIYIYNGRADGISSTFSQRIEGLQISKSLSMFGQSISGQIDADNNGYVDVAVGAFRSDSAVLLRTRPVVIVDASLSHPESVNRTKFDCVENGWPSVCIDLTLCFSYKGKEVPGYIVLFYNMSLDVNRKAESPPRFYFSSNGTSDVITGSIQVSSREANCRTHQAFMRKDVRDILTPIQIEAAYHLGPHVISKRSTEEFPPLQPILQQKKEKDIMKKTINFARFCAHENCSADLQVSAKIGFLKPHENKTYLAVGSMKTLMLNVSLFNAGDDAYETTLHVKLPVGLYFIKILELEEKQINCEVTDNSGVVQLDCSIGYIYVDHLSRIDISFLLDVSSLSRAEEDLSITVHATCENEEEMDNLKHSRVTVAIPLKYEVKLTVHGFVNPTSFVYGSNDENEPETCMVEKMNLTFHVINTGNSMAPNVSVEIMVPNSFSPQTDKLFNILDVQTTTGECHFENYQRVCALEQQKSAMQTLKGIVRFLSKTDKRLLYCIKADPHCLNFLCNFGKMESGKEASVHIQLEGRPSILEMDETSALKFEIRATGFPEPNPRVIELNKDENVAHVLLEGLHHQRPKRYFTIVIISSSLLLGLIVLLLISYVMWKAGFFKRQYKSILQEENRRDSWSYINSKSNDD
T1 sequence (P26010 20-798, chain 2 of 2): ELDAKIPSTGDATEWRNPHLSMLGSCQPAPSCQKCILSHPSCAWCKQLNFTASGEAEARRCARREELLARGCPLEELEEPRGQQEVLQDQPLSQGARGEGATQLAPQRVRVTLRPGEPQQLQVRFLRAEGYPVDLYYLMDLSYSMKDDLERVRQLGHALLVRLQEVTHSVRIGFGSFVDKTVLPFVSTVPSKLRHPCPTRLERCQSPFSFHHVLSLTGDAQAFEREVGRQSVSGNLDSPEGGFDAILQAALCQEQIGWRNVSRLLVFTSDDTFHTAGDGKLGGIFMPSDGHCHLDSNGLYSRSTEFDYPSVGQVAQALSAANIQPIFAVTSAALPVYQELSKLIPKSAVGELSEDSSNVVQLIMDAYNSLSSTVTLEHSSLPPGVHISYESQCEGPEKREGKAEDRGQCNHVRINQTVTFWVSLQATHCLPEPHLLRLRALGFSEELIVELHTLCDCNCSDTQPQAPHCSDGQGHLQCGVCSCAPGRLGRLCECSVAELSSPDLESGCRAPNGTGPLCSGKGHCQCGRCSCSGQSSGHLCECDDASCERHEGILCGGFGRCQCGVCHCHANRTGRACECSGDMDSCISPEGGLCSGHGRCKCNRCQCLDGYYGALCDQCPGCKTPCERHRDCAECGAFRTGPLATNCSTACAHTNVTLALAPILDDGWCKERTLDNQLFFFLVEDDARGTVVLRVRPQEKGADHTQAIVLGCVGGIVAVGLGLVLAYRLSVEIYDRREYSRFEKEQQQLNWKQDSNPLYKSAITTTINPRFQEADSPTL

B1: murine MAdCAM-1 stably expressed on 293T cells (ligand, UniProt Q61826 22-405, looked up)
chain: QSFQVNPPESEVAVAMGTSLQITCSMSCDEGVARVHWRGLDTSLGSVQTLPGSSILSVRGMLSDTGTPVCVGSCGSRSFQHSVKILVYAFPDQLVVSPEFLVPGQDQVVSCTAHNIWPADPNSLSFALLLGEQRLEGAQALEPEQEEEIQEAEGTPLFRMTQRWRLPSLGTPAPPALHCQVTMQLPKLVLTHRKEIPVLQSQTSPKPPNTTSAEPYILTSSSTAEAVSTGLNITTLPSAPPYPKLSPRTLSSEGPCRPKIHQDLEAGWELLCEASCGPGVTVRWTLAPGDLATYHKREAGAQAWLSVLPPGPMVEGWFQCRQDPGGEVTNLYVPGQVTPNSSSTVVLWIGSLVLGLLALVFLAYRLWKCYRPGPRPDTSSCTHL
notes: whole, on cells; 293T cells stably expressing the murine MAdCAM cDNA (from Dr. S. Fong, Genentech); also called mucosal addressin MAdCAM-1
For B1, the binding result is “binds”.
